Laboratory results as given in patent US20200123547, “NUCLEIC ACID-BASED ASSEMBLY AND USES THEREOF” (Rheinische Friedrich-Wilhelms-Universität Bonn, published 2020).

Legend:
[1] = target: T1, cMet (HGFR) ectodomain, cMet-Fc (human, UniProt P08581 P08581:25-932); experiment: competition; filter retention vs 32P-trCLN3; ~50 nM cMet; 1x PBS pH 7.4, 2 mM MgCl2, tRNA, BSA, 37 C; conditions: tags: Fc domain of human IgG1 fusion, R&D Systems; chain copies: 2; G4, micellar nanoconstruct above CMC 300-350 nM
T1 sequence (P08581 25-932, one chain of several): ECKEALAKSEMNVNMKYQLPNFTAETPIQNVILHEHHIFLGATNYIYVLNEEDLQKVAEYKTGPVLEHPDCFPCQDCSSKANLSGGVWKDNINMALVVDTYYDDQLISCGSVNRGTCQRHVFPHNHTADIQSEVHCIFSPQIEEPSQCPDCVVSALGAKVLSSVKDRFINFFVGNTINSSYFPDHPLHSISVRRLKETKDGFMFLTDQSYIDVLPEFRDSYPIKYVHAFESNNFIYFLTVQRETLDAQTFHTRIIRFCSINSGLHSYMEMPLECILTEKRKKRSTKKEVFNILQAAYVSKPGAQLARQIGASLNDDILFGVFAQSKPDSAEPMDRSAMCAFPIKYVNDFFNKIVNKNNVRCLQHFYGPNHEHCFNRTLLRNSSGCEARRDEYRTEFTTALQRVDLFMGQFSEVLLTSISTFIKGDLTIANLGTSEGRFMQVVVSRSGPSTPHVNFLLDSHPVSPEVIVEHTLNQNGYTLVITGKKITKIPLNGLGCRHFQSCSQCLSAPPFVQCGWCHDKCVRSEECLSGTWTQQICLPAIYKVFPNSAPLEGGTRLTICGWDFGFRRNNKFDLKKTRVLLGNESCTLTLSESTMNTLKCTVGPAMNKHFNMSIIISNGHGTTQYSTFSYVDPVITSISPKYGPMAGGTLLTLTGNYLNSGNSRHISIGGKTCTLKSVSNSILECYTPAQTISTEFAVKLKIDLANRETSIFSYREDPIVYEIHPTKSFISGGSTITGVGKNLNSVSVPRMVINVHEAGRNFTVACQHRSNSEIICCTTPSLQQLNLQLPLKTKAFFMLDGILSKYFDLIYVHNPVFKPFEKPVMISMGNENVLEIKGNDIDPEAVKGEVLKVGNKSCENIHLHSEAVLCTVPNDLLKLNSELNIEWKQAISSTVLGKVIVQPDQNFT
Protocol: (§1) To determine the affinity, ˜25 fmol of radiolabeled aptamer was incubated with a cMet concentration of ˜50 nM together with varying concentrations (1 μM-25 μM) of unlabeled competitor for 30 min at 37° C. in 25 μL of buffer containing 0.1 mg/ml E.coli tRNA (Roche, Mannheim, Germany), 0.25 mg/ml BSA, 2 mM MgCl₂ in 1× PBS, pH 7.4. The aptamer-protein complexes were captured on a Protran nitrocellulose membrane (GE Healthcare) that was pre-incubated in 0.4 M KOH for 10 minutes, followed by washing with 1× PBS containing 2 mM MgCl₂, pH 7.4. After addition of the aptamer-protein solution, the filter was washed 4 times with lx PBS containing 2 mM MgCl₂ using vacuum filtration. Residual radioactivity due to cMet bound labeled aptamers was quantified using Fujifilm Fla-3000 Phosphorlmager and AIDA software. The curves were fitted with GraphPadPrism 3.02 plotting non-linear regression curve and the IC₅₀ values have been calculated assuming a competition for single binding site.
(§2) To test the influence of lipid tails on aptamer binding, a competitive filter-binding assay was carried out using the methodology above. Varying concentrations of unlabeled 5′-lipid functionalized aptamer 3 and its two-point mutant variant trCLN3.mut-L4 (see Example 2.3) competed with a constant amount of ³²P-radio-labeled native trCLN3 aptamer in binding to cMet.

[2] = target: T1, cMet (HGFR) ectodomain, cMet-Fc; experiment: filter; almost no binding in filter retention assay; conditions: tags: Fc domain of human IgG1 fusion, R&D Systems; chain copies: 2
[3] = target: T1, cMet (HGFR) ectodomain, cMet-Fc; experiment: competition; no competition with 32P-trCLN3 within tested concentration range; conditions: tags: Fc domain of human IgG1 fusion, R&D Systems; chain copies: 2
Protocol: as §1, §2

TGGATGGTAGCTCGGTCGGGGTGGGTGGGTTGGCAAGTCT (structured_DNA, four 5-(1-dodecynyl)-2'-deoxyuridine (C12 lipid) residues at 5' end) [trCLN3-L4]
IC50 [1]: 43 nM

TGGATGATAGCTCGGTCGGGGTGGATGGGTTGGCAAGTCT (ssDNA) [trCLN3.mut]
binding result [2]: no binding

TGGATGATAGCTCGGTCGGGGTGGATGGGTTGGCAAGTCT (ssDNA, four 5-(1-dodecynyl)-2'-deoxyuridine (C12 lipid) residues at 5' end) [trCLN3.mut-L4]
binding result [3]: no binding
